Reference: US20210130491A1 (ONCOTAG DIAGNOSTICS, published 2021)
Each block holds one binder with its values, some of them ahead of it.

What was measured:
[1] = target: T1, co-purified MRS-AIMP3 protein (human, UniProt P56192 1-900; O43324 1-174, limits assumed); assay: SPR, MRS+AIMP3 on CM5 chip, antibody flowed; 8A12 antibody; MRS+AIMP3 on the chip
T1 construct: MRS and AIMP3 co-expressed in E. coli BL21DE3 and co-purified
T1 sequence 1: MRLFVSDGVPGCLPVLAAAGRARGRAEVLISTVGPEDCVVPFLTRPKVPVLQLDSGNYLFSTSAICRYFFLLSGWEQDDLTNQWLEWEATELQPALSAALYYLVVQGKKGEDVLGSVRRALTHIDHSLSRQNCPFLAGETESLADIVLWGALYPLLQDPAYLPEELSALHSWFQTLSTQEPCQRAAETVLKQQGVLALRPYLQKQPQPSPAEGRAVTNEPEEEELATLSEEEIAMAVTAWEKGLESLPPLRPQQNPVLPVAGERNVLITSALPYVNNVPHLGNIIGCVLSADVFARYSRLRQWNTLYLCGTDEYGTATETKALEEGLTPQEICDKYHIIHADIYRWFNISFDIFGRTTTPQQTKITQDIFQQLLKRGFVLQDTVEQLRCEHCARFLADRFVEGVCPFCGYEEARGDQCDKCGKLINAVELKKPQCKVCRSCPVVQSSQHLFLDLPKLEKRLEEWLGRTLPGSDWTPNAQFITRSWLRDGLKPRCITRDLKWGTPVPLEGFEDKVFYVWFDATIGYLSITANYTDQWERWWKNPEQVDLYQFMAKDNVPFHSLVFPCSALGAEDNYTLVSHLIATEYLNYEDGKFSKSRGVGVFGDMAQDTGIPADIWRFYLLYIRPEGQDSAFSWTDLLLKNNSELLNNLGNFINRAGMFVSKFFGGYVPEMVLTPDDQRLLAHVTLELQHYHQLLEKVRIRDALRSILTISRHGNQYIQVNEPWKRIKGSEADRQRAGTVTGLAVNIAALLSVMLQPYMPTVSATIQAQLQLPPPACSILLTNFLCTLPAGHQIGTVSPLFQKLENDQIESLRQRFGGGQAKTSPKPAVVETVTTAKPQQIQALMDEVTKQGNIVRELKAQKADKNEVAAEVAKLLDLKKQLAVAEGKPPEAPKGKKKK
T1 sequence 2: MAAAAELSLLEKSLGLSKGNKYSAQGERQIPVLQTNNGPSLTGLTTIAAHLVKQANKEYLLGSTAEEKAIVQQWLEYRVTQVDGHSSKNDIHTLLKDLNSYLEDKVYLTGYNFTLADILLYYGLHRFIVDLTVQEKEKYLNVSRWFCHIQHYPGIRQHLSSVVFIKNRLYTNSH
Method: (§1) Surface plasmon resonance (SPR) experiments were carried out using 1E8 and 8A12 antibodies and MRS+AIMP3 protein obtained in Example 1.
(§2) CM5 chips were coated with MRS+AIMP3 or AIMP3 proteins and 1E8 or 8A12 antibodies were flowed at various concentrations to measure the degree of binding reaction with the proteins. Samples or buffers were injected for 8 minutes at a flow rate of 30 μl/min and washed for 20 minutes.

[2] = target: T1, co-purified MRS-AIMP3 protein; assay: SPR, CM5 chip coated with MRS+AIMP3, antibody flowed at 0.39 to 200 nM
Method: as §1, §2

[3] = target: T1, co-purified MRS-AIMP3 protein; assay: SPR, CM5 chip coated with MRS+AIMP3, antibody flowed at 0.20 to 200 nM
Method: as §1, §2

[4] = target: T1, co-purified MRS-AIMP3 protein; assay: SPR, MRS+AIMP3 on CM5 chip, antibody flowed; 1E8 antibody; MRS+AIMP3 on the chip
Method: as §1, §2

Kd [1]: 1.56 nM | koff [2]: 0.000213 s⁻¹ | kon [2]: 137000 M⁻¹ s⁻¹
B1: 8A12 antibody (8A12 IgG) (antibody, V domains shown)
VH: DVKLQESGPGLVKPSQSLSLTCTVTGYSITSEYAWTWIRQFPGNKLEWMGYINYNGNTNLNPSLKSRISIIRDTSKNQFFLQLNSVTTEDTATYYCARSLWPRGWFAYWGQGTLVTVSA
VL: DIQMTQSPSSMYASLGERVTITCKASQDINSYLSWFQQKPGKSPKTLMYRANRLVDGVPSRFSGSGSGQDYSLTISSLEYEDMGIYYCLQYDEFPRTFGGGTKLEIKA
notes: Mouse monoclonal from hybridoma clone 8A12; also called 8Al2; anti-MRS antibody (8A12)

koff [3]: 0.000526 s⁻¹ | kon [3]: 97100 M⁻¹ s⁻¹ | Kd [4]: 5.42 nM
B2: 1E8 antibody (1E8 IgG) (antibody, V domains shown)
VH: DVKLQESGPGLVNPSQSLSLTCTVTGYSITSDYAWNWIRQFPGNKLEWMGYISYSGRTSYKSSLKSRISITRDTSKNQFFLELNSVTTEDTATYYCARDYGNFVGYFDVWGAGTTVTVSS
VL: DIVMTQSPSSLAVSVGEKVTMSCKSSQSLLYSSNQKNYLAWYQQKPGQSPKLLIYWASTRESGVPDRFTGSGSGTEFTLTISSVKAEDLAVYYCQQYYSYPTFGGGTKLEIKA
notes: Mouse monoclonal from hybridoma clone 1E8; also called IE8; anti-MRS antibody (1E8)
